Experimental data taken from article PMC12151379, “The liprin-α/RIM complex regulates the dynamic assembly of presynaptic active zones via liquid–liquid phase separation” (PLOS Biology, 2025).

Target: the molecule itself
Assay: SEC-MALS; 100 μl sample (individual proteins or mixture, up to 500 μM) on Superdex 200 Increase 10/300 GL in TBS

B1: liprin-α2_CC2 (residues 259–542) (domain or fragment, human, UniProt O75334 259-542, looked up)
chain: GSIDSTDETSQIVELQELLEKQNYEMAQMKERLAALSSRVGEVEQEAETARKDLIKTEEMNTKYQRDIREAMAQKEDMEERITTLEKRYLSAQRESTSIHDMNDKLENELANKEAILRQMEEKNRQLQERLELAEQKLQQTMRKAETLPEVEAELAQRIAALTKAEERHGNIEERMRHLEGQLEEKNQELQRARQREKMNEEHNKRLSDTVDRLLTESNERLQLHLKERMAALEEKNVLIQESETFRKNLEESLHDKERLAEEIEKLRSELDQLKMRTGSLIEP
notes: liprin-α2, human, GenBank AF034799.1, CC2 region, residues 259–542; Dimeric by SEC-MALS at 500 μM; source: E. coli BL21(DE3), purified (Ni-NTA, SEC)
B1 was tested, and the “stoichiometry N” value was 2.
